Test results published in US20150057236.
Marks after values point to notes of the source that are not given here.

What was measured:
[1] = system: ACS2 K628 (623-632 + WW) acetyl peptide
[2] = system: ACS2 K628 (623-632 + WW) malonyl peptide
[3] = system: ACS2 K628 (623-632 + WW) succinyl peptide
[4] = target: GDH K503 (498-509 + WW) acetyl peptide (UniProt P00367)
[5] = target: GDH K503 (498-509 + WW) malonyl peptide (UniProt P00367)
[6] = target: GDH K503 (498-509 + WW) succinyl peptide (UniProt P00367)
[7] = target: H3 K9 (4-13 + WW) acetyl peptide (UniProt P68431)
[8] = target: H3 K9 (4-13 + WW) malonyl peptide (UniProt P68431)
[9] = target: H3 K9 (4-13 + WW) succinyl peptide (UniProt P68431)

Sequence of Sirt5 Y102F (chain, as listed by the source Y102F): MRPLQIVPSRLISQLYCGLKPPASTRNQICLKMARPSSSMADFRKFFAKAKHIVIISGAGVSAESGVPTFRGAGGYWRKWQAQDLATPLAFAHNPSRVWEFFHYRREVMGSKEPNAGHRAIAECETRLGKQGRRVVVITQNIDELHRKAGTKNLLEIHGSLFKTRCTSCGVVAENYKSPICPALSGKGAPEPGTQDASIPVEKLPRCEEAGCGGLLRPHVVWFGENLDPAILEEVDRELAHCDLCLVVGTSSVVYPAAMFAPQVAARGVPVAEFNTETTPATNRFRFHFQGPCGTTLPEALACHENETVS
Sequence of Sirt5 R105M (chain, as listed by the source R105M): as the sequence (chain, as listed by the source Y102F) above, with F102Y, R105M counted along it
Sequence of human Sirt5 (chain, as listed by the source): as the sequence (chain, as listed by the source Y102F) above, with F102Y counted along it
Sequence of Sirt5 H158Y (chain, as listed by the source H158Y): as the sequence (chain, as listed by the source Y102F) above, with F102Y, H158Y counted along it

In the case of Sirt5 H158Y, the “Km for peptide (µM), desuccinylation” value (H3K9 succinyl peptide) is reported as “ND (>750)*” and the kcat/Km (s^-1M^-1), desuccinylation (H3K9 succinyl peptide) is reported as 75 s^-1M^-1.
Sirt5 R105M was tested, and the “Km for peptide (µM), deacetylation” value (H3K9 acetyl peptide) was “ND (>750)*”, the kcat/Km (s^-1M^-1), deacetylation (H3K9 acetyl peptide) was 0.5 s^-1M^-1 and the “Km for peptide (µM), desuccinylation” value (H3K9 succinyl peptide) was “ND (>750)*”. It also gave a kcat/Km (s^-1M^-1), desuccinylation (H3K9 succinyl peptide) of 0.9 s^-1M^-1.
For Sirt5 Y102F, the “Km for peptide (µM), deacetylation” value (H3K9 acetyl peptide) was “ND (>750)*”, the kcat/Km (s^-1M^-1), deacetylation (H3K9 acetyl peptide) was 2 s^-1M^-1 and the “Km for peptide (µM), desuccinylation” value (H3K9 succinyl peptide) was “ND (>750)*”. The kcat/Km (s^-1M^-1), desuccinylation (H3K9 succinyl peptide) was 397 s^-1M^-1.
With human Sirt5 the “Peptide Km (µM), deacetylation” value [1] was “ND (>750)”, the kcat/Km (s^-1M^-1), deacetylation [1] was 18 s^-1M^-1 and the Peptide Km (µM), demalonylation [2] was 150 µM. The kcat (s^-1), demalonylation [2] was 0.079 s⁻¹, the kcat/Km (s^-1M^-1), demalonylation [2] was 520 s^-1M^-1 and the Peptide Km (µM), desuccinylation [3] was 450 µM. For the same substance, the kcat (s^-1), desuccinylation [3] was 0.268 s⁻¹, the kcat/Km (s^-1M^-1), desuccinylation [3] was 600 s^-1M^-1 and the “Peptide Km (µM), deacetylation” value [4] was “ND (>750)”. The kcat/Km (s^-1M^-1), deacetylation [4] was under 2 s^-1M^-1, the Peptide Km (µM), demalonylation [5] was 8.7 µM and the kcat (s^-1), demalonylation [5] was 0.014 s⁻¹. It also gave a kcat/Km (s^-1M^-1), demalonylation [5] of 1600 s^-1M^-1, a Peptide Km (µM), desuccinylation [6] of 14 µM and a kcat (s^-1), desuccinylation [6] of 0.028 s⁻¹. For the same substance, the kcat/Km (s^-1M^-1), desuccinylation [6] was 2000 s^-1M^-1, the “Peptide Km (µM), deacetylation” value [7] was “ND (>750)” and the kcat/Km (s^-1M^-1), deacetylation [7] was 7.8 s^-1M^-1. For the same substance, the Peptide Km (µM), demalonylation [8] was 6.1 µM, the kcat (s^-1), demalonylation [8] was 0.037 s⁻¹ and the kcat/Km (s^-1M^-1), demalonylation [8] was 6100 s^-1M^-1. For the same substance, the Peptide Km (µM), desuccinylation [9] was 5.8 µM, the kcat (s^-1), desuccinylation [9] was 0.025 s⁻¹ and the kcat/Km (s^-1M^-1), desuccinylation [9] was 4300 s^-1M^-1. For the same substance, the “Km for acetyl peptide (µM)” value (H3K9 acetyl peptide) was “ND (>750)*”, the “Km for peptide (µM), deacetylation” value (H3K9 acetyl peptide) was “ND (>750)*” and the “hydrolysis of acyl peptide (LC-MS)” value (H3K9 acetyl peptide) was “with Sirt5, very little hydrolysis of the acetyl peptide was observed”. The kcat/Km (s^-1M^-1) (H3K9 acetyl peptide) was 2 s^-1M^-1, the kcat/Km (s^-1M^-1), deacetylation (H3K9 acetyl peptide) was 2 s^-1M^-1 and the “hydrolysis of acyl peptide (LC-MS)” value (H3K9 malonyl peptide) was “the malonyl and succinyl peptides were hydrolyzed significantly”. The Km for peptide (µM), desuccinylation (H3K9 succinyl peptide) was 41 µM, the “hydrolysis of acyl peptide (LC-MS)” value (H3K9 succinyl peptide) was “the malonyl and succinyl peptides were hydrolyzed significantly” and the kcat (s^-1), desuccinylation (H3K9 succinyl peptide) was 0.029 s⁻¹. The kcat/Km (s^-1M^-1), desuccinylation (H3K9 succinyl peptide) was 710 s^-1M^-1, the “percent hydrolysis in 3 hrs, 1 µM Sirt5 (HPLC)” value (KQTAR(SuK)-AMC peptide) was 10% and 60% hydrolysis by 1 and 5 µM of Sirt5 in 3 hrs and the “percent hydrolysis in 3 hrs, 5 µM Sirt5 (HPLC)” value (KQTAR(SuK)-AMC peptide) was 10% and 60% hydrolysis by 1 and 5 µM of Sirt5 in 3 hrs.
With human Sirt6 the “hydrolysis of acyl peptide (LC-MS)” value (H3K9 acetyl peptide) was “Sirt6 and Sirt7 have no detectable activity on acetyl, malonyl, or succinyl peptides under the conditions tested”, the “hydrolysis of acyl peptide (LC-MS)” value (H3K9 malonyl peptide) was “Sirt6 and Sirt7 have no detectable activity on acetyl, malonyl, or succinyl peptides under the conditions tested” and the “hydrolysis of acyl peptide (LC-MS)” value (H3K9 succinyl peptide) was “Sirt6 and Sirt7 have no detectable activity on acetyl, malonyl, or succinyl peptides under the conditions tested”.
